This is an account of results in article PMC12127727, “Double the Double: Revisiting BCL11B's Multimerization” (Proteins, 2025).

Data set [1] concerns the molecule itself. Description: cross-linking; constructs incubated with BS(PEG)5 (bis-succinimide ester-activated PEG, 21.7 Å), then reducing 16% tricine SDS-PAGE of crosslinked and control samples.
Data set [2] deals with the molecule itself. Description: SEC; analytical size exclusion chromatography of the purified recombinant constructs; stoichiometric factors calculated from elution volumes with a calibration curve (Figure S1); rough estimate of molecular weights.

B1: BCL11B_(42–94) WT (N-terminal wild-type zinc finger domain, ZF0) (domain or fragment, human, UniProt Q9C0K0 42-94, looked up)
chain: SGLGLMVGGPDPDLLTCGQCQMNFPLGDILVFIEHKRKQCGGSLGACYDKALD
notes: B Cell Lymphoma/Leukemia 11B (BCL11B), human, residues 42-94, atypical CCHC zinc finger domain ZF0; source: E. coli, recombinantly expressed, purified
Take B1: the “stoichiometry N” value is 4 in data set [1] and 7 in data set [2].

B2: BCL11B_(42–94) K77A (domain or fragment, human, UniProt Q9C0K0 42-94, looked up)
chain: SGLGLMVGGPDPDLLTCGQCQMNFPLGDILVFIEHARKQCGGSLGACYDKALD
notes: BCL11B, human, residues 42-94 (ZF0) with K77A; also called lysine mutant K77A; source: E. coli, recombinantly expressed, purified
As for B2, the “stoichiometry N” value in data set [1] stood at 2.

B3: BCL11B_(42–94) I70A (domain or fragment, human, UniProt Q9C0K0 42-94, looked up)
chain: SGLGLMVGGPDPDLLTCGQCQMNFPLGDALVFIEHKRKQCGGSLGACYDKALD
notes: BCL11B, human, residues 42-94 (ZF0) with I70A; CD spectra indicate an incomplete zinc finger fold; source: E. coli, recombinantly expressed, purified
Consider B3, for which the “stoichiometry N” value in data set [1] came to 2.

B4: BCL11B_(42–94) I74A (domain or fragment, human, UniProt Q9C0K0 42-94, looked up)
chain: SGLGLMVGGPDPDLLTCGQCQMNFPLGDILVFAEHKRKQCGGSLGACYDKALD
notes: BCL11B, human, residues 42-94 (ZF0) with I74A; CD spectra indicate an incomplete zinc finger fold; source: E. coli, recombinantly expressed, purified
As for B4, the “stoichiometry N” value in data set [1] stood at 2.

B5: BCL11B_(42–94) L71A/V72A (domain or fragment, human, UniProt Q9C0K0 42-94, looked up)
chain: SGLGLMVGGPDPDLLTCGQCQMNFPLGDIAAFIEHKRKQCGGSLGACYDKALD
notes: BCL11B, human, residues 42-94 (ZF0) with L71A and V72A; also called double mutant L71A/V72A; source: E. coli, recombinantly expressed, purified
B5: the “stoichiometry N” value in data set [1] was 4.

B6: BCL11B_(42–94) C81H (domain or fragment, human, UniProt Q9C0K0 42-94, looked up)
chain: SGLGLMVGGPDPDLLTCGQCQMNFPLGDILVFIEHKRKQHGGSLGACYDKALD
notes: BCL11B, human, residues 42-94 (ZF0) with C81H, which turns the CCHC zinc finger into a C2H2 zinc finger; also called zinc finger mutant C81H; source: E. coli, recombinantly expressed, purified
With B6, the “stoichiometry N” value in data set [1] turned out to be 4.

B7: BCL11B_(42–426) WT (domain or fragment, human, UniProt Q9C0K0 42-426, looked up)
chain: SGLGLMVGGPDPDLLTCGQCQMNFPLGDILVFIEHKRKQCGGSLGACYDKALDKDSPPPSSRSELRKVSEPVEIGIQVTPDEDDHLLSPTKGICPKQENIAGPCRPAQLPAVAPIAASSHPHSSVITSPLRALGALPPCLPLPCCSARPVSGDGTQGEGQTEAPFGCQCQLSGKDEPSSYICTTCKQPFNSAWFLLQHAQNTHGFRIYLEPGPASSSLTPRLTIPPPLGPEAVAQSPLMNFLGDSNPFNLLRMTGPILRDHPGFGEGRLPGTPPLFSPPPRHHLDPHRLSAEEMGLVAQHPSAFDRVMRLNPMAIDSPAMDFSRRLRELAGNSSTPPPVSPGRGNPMHRLLNPFQPSPKSPFLSTPPLPPMPPGGTPPPQPPAKS
notes: source: E. coli, recombinantly expressed, purified
Turning to B7, in data set [2], the “stoichiometry N” value was 4.

B8: BCL11B_(42–220) WT (domain or fragment, human, UniProt Q9C0K0 42-220, looked up)
chain: SGLGLMVGGPDPDLLTCGQCQMNFPLGDILVFIEHKRKQCGGSLGACYDKALDKDSPPPSSRSELRKVSEPVEIGIQVTPDEDDHLLSPTKGICPKQENIAGPCRPAQLPAVAPIAASSHPHSSVITSPLRALGALPPCLPLPCCSARPVSGDGTQGEGQTEAPFGCQCQLSGKDEPSS
notes: BCL11B, human, residues 42-220: ZF0 extended up until the first C2H2 zinc finger domain (ZF1); source: E. coli, recombinantly expressed, purified
As to B8, the “stoichiometry N” value in data set [2] was 16.6.

The term stoichiometry N denotes a count of units in the complex or per binding partner.
